To fix the notation:
B1: Single stranded nucleic acid binding protein (Sbp1), wild type, galactose-inducible with ZZ (protein A) tag, from wild-type yeast R153 [modified: arginine-methylated in yeast … (parent)
chain 1: MSAEIEEATNAVNNLSINDSEQQPRAPTHKTVIDPEDTIFIGNVAHECTEDDLKQLFVEEFGDEVSVEIPIKEHTDGHIPASKHALVKFPTKIDFDNIKENYDTKVVKDREIHIKRARTPGQMQRGGFRGRGGFRGRGGFRGGFRGGYRGGFRGRGNFRGRGGARGGFNGQKREKIPLDQMERSKDTLYINNVPFKATKEEVAEFFGTDADSISLPMRKMRDQHTGRIFTSDSANRGMAFVTFSGENVDIEAKAEEFKGKVFGDRELTVDVAVIRPENDEEEIEQETGSEEKQE
chain 2: MTDETAHPTQSASKQESAALKQTGDDQQESQQQRGYTNYNNGSNYTQKKPYNSNRPHQQRGGKFGPNRYNNRGNYNGGGSFRGGHMGANSSNVPWTGYYNNYPVYYQPQQMAAAGSAPANPIPVEEKSPVPTKIEITTKSGEHLDLKEQHKAKLQSQERSTVSPQPESKLKETSDSTSTSTPTPTPSTNDSKASSEENISEAEKTRRNFIEQVKLRKAALEKKRKEQLEGSSGNNNIPMKTTPENVEEKGSDKPEVTEKTKPAEEKSAEPEVKQETPAEEGEQGEKGQIKEESTPKVLTFAERLKLKKQQKEREEKTEGKENKEVPVQEETKSAIESAPVPPSEQVKEETEVAETEQSNIDESATTPAIPTKSDEAEAEVEAEAGDAGTKIGLEAEIETTTDETDDGTNTVSHILNVLKDATPIEDVFSFNYPEGIEGPDIKYKKEHVKYTYGPTFLLQFKDKLNVKADAEWVQSTASKIVIPPGMGRGNRSRDSGRFGNNSSRGHDFRNTSVRNMDDRANSRTSSKRRSKRMNDDRRSNRSYTSRRDRERGSYRNEEKREDDKPKEEVAPLVPSANRWVPKFKSKKTEKKLAPDGKTELLDKDEVERKMKSLLNKLTLEMFDAISSEILAIANISVWETNGETLKAVIEQIFLKACDEPHWSSMYAQLCGKVVKELNPDITDETNEGKTGPKLVLHYLVARCHAEFDKGWTDKLPTNEDGTPLEPEMMSEEYYAAASAKRRGLGLVRFIGFLYRLNLLTGKMMFECFRRLMKDLTDSPSEETLESVVELLNTVGEQFETDSFRTGQATLEGSQLLDSLFGILDNIIQTAKISSRIKFKLIDIKELRHDKNWNSDKKDNGPKTIQQIHEEEERQRQLKNNSRSNSRRTNNSSNRHSFRRDAPPASKDSFITTRTYSQRNSQRAPPPKEEPAAPTSTATNMFSALMGESDDEE

The variants in the experiment derive from B1. Description: glutathione pull-down, PAP blot band quantified. The note with it: with eukaryotic translation initiation factor 4G1 fused to GST (eIF4G1-GST) [yeast]; purified eIF4G1-GST incubated with yeast lysate; n = 3; parent: 100; read off a plot.
With chain 1 MSAEIEEATNAVNNLSINDSEQQPRAPTHKTVIDPEDTIFIGNVAHECTEDDLKQLFVEEFGDEVSVEIPIKEHTDGHIPASKHALVKFPTKIDFDNIKENYDTKVVKDREIHIKRARTPGQMQAGGFAGAGGFAGAGGFAGGFAGGYAGGFAGAGNFAGAGGAAGGFNGQKREKIPLDQMERSKDTLYINNVPFKATKEEVAEFFGTDADSISLPMRKMRDQHTGRIFTSDSANRGMAFVTFSGENVDIEAKAEEFKGKVFGDRELTVDVAVIRPENDEEEIEQETGSEEKQE [chain 1 R125A R129A R131A R135A R137A R141A R145A R149A R153A R155A R159A R161A R165A], the percent of parent was found to be 25 % binding.
